This note sets out measurements from patent US20250250320A1 (UNIVERSITE CATHOLIQUE DE LOUVAIN, published 2025).

Data set [1] concerns the target CALR del52 (human calreticulin mutant L367fs*46), full length, no tag stated (human). Nature of the data set: flow cytometry on living Ba/F3 cells with human TPOR and CALR mutant after adding the Fc fusion to the medium; concentration not given. In general terms: In flow cytometry, cells or beads pass a laser one at a time.
Data set [2] deals with the molecule itself. Nature of the data set: native gel of CALR species with or without DTT (self-association).
Data set [3] deals with the molecule itself. In words: native gel with or without DTT (self-association).
Data set [4] deals with T1, recombinant complete extracellular domain of TpoR with mature glycans (human, UniProt P40238 26-490, mature glycans).
T1 construct: Purified recombinant protein used in HDx-MS; also called TpoR ECD; D1D2D3D4
T1 sequence: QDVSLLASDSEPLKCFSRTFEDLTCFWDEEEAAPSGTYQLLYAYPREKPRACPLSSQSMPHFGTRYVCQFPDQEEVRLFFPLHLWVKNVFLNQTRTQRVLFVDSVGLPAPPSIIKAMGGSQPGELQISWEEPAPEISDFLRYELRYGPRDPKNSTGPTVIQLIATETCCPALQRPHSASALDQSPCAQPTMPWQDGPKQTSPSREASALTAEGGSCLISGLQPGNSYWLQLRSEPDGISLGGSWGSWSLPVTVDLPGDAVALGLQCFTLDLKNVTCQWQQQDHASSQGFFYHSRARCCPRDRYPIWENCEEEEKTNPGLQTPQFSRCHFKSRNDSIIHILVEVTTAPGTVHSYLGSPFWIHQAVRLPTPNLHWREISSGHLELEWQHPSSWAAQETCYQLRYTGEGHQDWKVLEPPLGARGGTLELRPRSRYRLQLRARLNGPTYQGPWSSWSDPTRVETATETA
In words: HDx-MS of mature TpoR ECD alone or with CALR del52. As to the method:
Hydrogen-Deuterium Exchange Mass Spectrometry (HDx-MS): Hydrogen-Deuterium Exchange Mass Spectrometry was performed with a Waters nanoAcquity UPLC with HDx technology coupled with Synapt G2-Si. All purified recombinant proteins were used at 20 μM concentration in equilibration buffer (5 mM K2HPO4, 5 mM KH2PO4 dissolved in H2O, pH 7). For interaction analysis between recombinant mature D1D2D3D4 and CALR del52, proteins were first mixed together at a 1:1 molarity for 30 minutes at room temperature followed by 3 hours at 4° C. Proteins were then kept at 0° C. Labelling was performed with a 20-fold dilution of samples in labelling buffer (5 mM K2HPO4, 5 mM KH2PO4 dissolved in D20, pD 7) for 6 different incubation times (0, 0.25, 1, 5, 20 and 60 minutes) at 20° C. After incubation, the reaction was quenched using a 1:1 dilution in the quench buffer (0.05 M K2HPO4, 0.05 M KH2PO4 with 30 mM TCEP, pH 2.3) prior to injection into a pepsin column (Enzymate BEH Pepsin 2.1×30 Column, Waters CAT. 186007233) with dynamic flowrate of 150-75 μL/min. […] The peptides identified were further analyzed with DynamX 3.0 (Waters) using a tolerance of 10 ppm, a maximum length of 35 a.a., a minimum products per amino acid of 0.2 and requiring that each peptide was identified in 3 out of 3 replicates. […] Data was statistically analyzed using Deuteros 2.0 with peptide-level significance testing (Lau et al., 2021). […]

The target in data set [5] is T2, TpoR D1D2 (sD1D2) with immature glycans, produced with CALR del52 in Drosophila S2 (Schneider) cells (human, UniProt P40238 26-283, limits assumed, immature glycans (Asn117)).
T2 construct: Purified as a complex with CALR del52 for HDx-MS; also called immature TpoR
T2 sequence: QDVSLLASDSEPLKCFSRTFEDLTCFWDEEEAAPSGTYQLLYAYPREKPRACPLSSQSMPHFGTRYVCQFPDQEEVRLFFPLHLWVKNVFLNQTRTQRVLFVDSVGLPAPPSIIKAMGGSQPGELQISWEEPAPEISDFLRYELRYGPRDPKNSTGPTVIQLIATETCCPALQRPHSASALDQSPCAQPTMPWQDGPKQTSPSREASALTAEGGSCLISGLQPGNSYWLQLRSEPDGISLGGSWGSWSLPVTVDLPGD
In words: complex co-produced in S2 cells, size-exclusion chromatography, HDx-MS. The source says:
All peptides were visually validated based on retention time, drift time and isotopic m/z. Data was statistically analyzed using Deuteros 2.0 with peptide-level significance testing (Lau et al., 2021).
Subsequently, CALR del52-D1D2 produced as a complex in Schneider cells was purified. Briefly, the extracellular domain of the human TpoR and human CALR mutant del52 produced in Drosophila S2 cells (Thermo Fisher Scientific) were fractionated by using size-exclusion chromatography by loading on a Superdex 200 Increase 10/300 column (GE Healthcare). Elution was performed at 0.5 mL/min with buffer TNG (Tris-NaCl-glycerol) pH 7.5, and 0.5 mL fractions were collected and analyzed by sodium dodecyl sulfate-polyacrylamide gel electrophoresis and western blot. Fraction proteins were immunoprecipitated with anti-His5 antibody (Qiagen) and treated with Endoglycosidase-H (NEB) or N-glycosidase F (NEB). HDx-MS was used to detect all interaction sites between CALR del52 and TpoR D1D2 (sD1D2) produced in the same cells. […] Importantly, this region was not involved in binding of mature TpoR as shown above, confirming that it is specifically involved in interaction with immature glycans. […]
(In general: Size exclusion chromatography separates by hydrodynamic size, large species first.)

Turning to “D1-Fc (TPOR D1 domain fused through its C-terminus to an Fc fragment) (from UniProt P40238 26-121) (Fc fusion)”, the reduction of the level of CALR mutant at the cell surface in data set [1] was > 50%.

B1: CALR Δc-tail (other)
chain: EPAVYFKEQFLDGDGWTSRWIESKHKSDFGKFVLSSGKFYGDEEKDKGLQTSQDARFYALSASFEPFSNKGQTLVVQFTVKHEQNIDCGGGYVKLFPNSLDQTDMHGDSEYNIMFGPDICGPGTKKVHVIFNYKGKNVLINKDIRCKDDEFTHLYTLIVRPDNTYEVKIDNSQVESGSLEDDWDFLPPKKIKDPDASKPEDWDERAKIDDPTDSKPEDWDKPEHIPDPDAKKPEDWDEEMDGEWEPPVIQNPEYKGEWKPRQIDNPDYKGTWIHPEIDNPEYSPDPSIYAYDNFGVLGLDLWQVKSGTIFDNFLITNDEAYAEEFGNETWGVTKAAEKQMKDKQDEEQR
notes: the C-tail is absent
Turning to B1, the binding result in data set [2] is recorded as “no binding”.

B2: CALR del52 (human calreticulin mutant L367fs*46), full length, no tag stated (other)
chain: EPAVYFKEQFLDGDGWTSRWIESKHKSDFGKFVLSSGKFYGDEEKDKGLQTSQDARFYALSASFEPFSNKGQTLVVQFTVKHEQNIDCGGGYVKLFPNSLDQTDMHGDSEYNIMFGPDICGPGTKKVHVIFNYKGKNVLINKDIRCKDDEFTHLYTLIVRPDNTYEVKIDNSQVESGSLEDDWDFLPPKKIKDPDASKPEDWDERAKIDDPTDSKPEDWDKPEHIPDPDAKKPEDWDEEMDGEWEPPVIQNPEYKGEWKPRQIDNPDYKGTWIHPEIDNPEYSPDPSIYAYDNFGVLGLDLWQVKSGTIFDNFLITNDEAYAEEFGNETWGVTKAAEKQMKDKQDEEQRTRRMMRTKMRMRRMRRTRRKMRRKMSPARPRTSCREACLQGWTEA
notes: also called CALR mutant; mutant CALR
B2: the binding result in data set [3], in data set [4] and in data set [5] was “binds” each time.
